B1: cathepsin K: recombinant human cysteine protease, expressed in E. coli as zymogen and cleaved to active enzyme (protein)
chain: APDSVDYRKKGYVTPVKNQGQCGSCWAFSSVGALEGQLKKKTGKLLNLSPQNLVDCVSENDGCGGGYMTNAFQYVQKNRGIDSEDAYPYVGQEESCMYNPTGKAAKCRGYREIPEGNEKALKRAVARVGPVSVAIDASLTSFQFYSKGVYYDESCNSDNLNHAVLAVGYGIQKGNKHWIIKNSWGENWGNKGYILMARNKNNACGIANLASFPKM
B2: cathepsin S: recombinant human cysteine protease, expressed in E. coli as zymogen and cleaved to active enzyme (protein)
chain: LPDSVDWREKGCVTEVKYQGSCGACWAFSAVGALEAQLKLKTGKLVSLSAQNLVDCSTEKYGNKGCNGGFMTTAFQYIIDNKGIDSDASYPYKAMDQKCQYDSKYRAATCSKYTELPYGREDVLKEAVANKGPVSVGVDARHPSFFLYRSGVYYEPSCTQNVNHGVLVVGYGDLNGKEYWLVKNSWGHNFGEEGYIRMARNKGNHCGIASFPSYPEI

Assays:
[1] = Chromogenic substrate assay, protease activity of the purified recombinant cathepsins; format: biochemical; conditions: FIG. 1; protease 0.84 μM
Procedure: The concentrations of all the three proteases are at 0.84 μM and that of E64, a non-selective irreversible inhibitor of cysteine proteases, is at 2 μM […].
Papain served as a positive control cysteine protease. The cathepsin S and K were further evaluated for their capacity to activate PAR receptors as noted below.

[2] = test system: PAR2; test: PAR activation by cytoplasmic calcium release in transfected HeLa cells (Fura-2 ratiometric imaging), PAR2; format: cell-based, human
Procedure: (§1) The responses to PAR 2 and 4 were blocked by the protease inhibitor E64 (10 μM) as a control). Other controls included vector alone and vector encoding the PAR1 receptor. Cathepsin S was added as indicated. The averages from at least three separate experiments were then combined +/−SD.
(§2) Salmon sperm (SS) DNA is used as control. The averages from at least three separate experiments were then combined +/−SD.
(§3) PAR activation observed by cytoplasmic calcium release—The four human PAR cDNAs were obtained from commercial sources and cloned into the pcDNA3.1(−) vector (INVITROGEN™ Inc.). HeLa cells were transfected with 10 μg of vector cDNA using Lipofectamine 2000 (INVITROGEN™ Inc.) and cultured for two days in 96-well glass bottom plates at 30,000 cells/well. Cells were loaded with Fura-2 as follows. The medium was aspirated and replaced with 100 μl of complete DMEM containing 2 μM Fura-2 (INVITROGEN™ Inc.) and kept at room temperature in the dark for 1 hr. The medium was again aspirated and each well received 90 μl of HEPES buffered saline (20 mM HEPES, 115 mM NaCl, 5.4 mM KCl, 2 mM CaCl2, 0.8 mM MgCl2, 13.8 mM glucose, pH 7.4). Plates were observed using a Zeiss Axiovert 200M microscope equipped with a filter wheel for monitoring excitation at 340 and 380 nm. Axiovision software, version 4.6 was used to analyze ratiometric calcium imaging of the cells. […]

[3] = test system: PAR4; test: PAR activation by cytoplasmic calcium release in transfected HeLa cells (Fura-2 ratiometric imaging), PAR4; format: cell-based, human
Procedure: as §1, §2, §3

[4] = test system: PAR1; test: PAR activation by cytoplasmic calcium release in transfected HeLa cells (Fura-2 ratiometric imaging), PAR1; format: cell-based, human; conditions: HeLa cells transfected with PAR1
Procedure: as §1
as §3, with “cells. Ten μl of a 21 μM solution of recombinant human cathepsin S were applied approximately 20 seconds after the start of excitation.” for “cells.”

[5] = test system: human volunteers; test: Itch evoked by inactivated cowhage spicules reconstituted with cathepsin S, inserted into skin; format: in vivo
Procedure: Recombinant cathepsin S also evokes itch in human volunteers. In this experiment, native itch-evoking spicules from the plant Mucuna pruriens were inactivated by autoclaving for 1 hour and reconstituted with recombinant cathepsin S. Typically, 50 mg of inactivated spicules were mixed with 0.4 ml of 1 mg of recombinant cathepsin S in 0.1M NaCl with 0.01 M L-cysteine in a 2 ml microfuge tube, vortexed, dried in a Speed-vac for 2 hours at room temperature, vortexed again and transferred to a new tube. This second vortex step allowed for precipitated salt to be separated from the spicules. These spicules were then considered ‘reconstituted’ with the cathepsin S. Individual spicules were then superficially inserted approximately 0.2 mm into the skin of volunteers who rated the subsequent itch as “very strong”. The mean perceived intensity of itch and nociceptive sensation evoked by a single inactivated spicule reconstituted with cathepsin S on nine human volunteers is shown in FIG. 3A. The mean perceived intensity is similar with that for itch and nociceptive sensation evoked by a single spicule of native cowhage for the same nine volunteers.

[6] = cathepsin S 30 nM versus mucunain

Molecule	capacity to cleave the chromogenic substrate Z-Phe-Arg-pNA [1]	concentration at which strong activation of PAR2 occurred (calcium flux) ([2]; HeLa cells transfected with PAR2) [nM]	activating concentration relative to that needed for stimulation via mucunain, PAR2 [2, 6]	concentration at which strong activation of PAR4 occurred (calcium flux) ([3]; HeLa cells transfected with PAR4) [nM]	activating concentration relative to that needed for stimulation via mucunain, PAR4 [3, 6]	activation of PAR1 (calcium flux) [4]	mean perceived intensity of itch and nociceptive sensation compared with a single spicule of native cowhage ([5]; nine human volunteers, FIG. 3A versus 3B)	itch rating by volunteers ([5]; single reconstituted spicule inserted approximately 0.2 mm into skin)
B1	had protease activity							
B2	had protease activity	30	at least ten-fold less	30	at least ten-fold less	no activation	similar	very strong

From patent publication US8852569B2, “Prevention and treatment of itch with cysteine protease inhibition” (The General Hospital Corporation, priority 2008, dated 2014)
